Test results from patent publication US20250073302A1 (PURDUE RESEARCH FOUNDATION, published 2025).
Non-standard residues stand in square brackets, D forms with d. No end group written: not given here. dPra = C#CC[C@@H](N)C(=O)O; dDap = NC[C@@H](N)C(=O)O

B1: CyPPS1 (peptide)
peptide: cyclo(T[dL]F[dF]R[dA])
SMILES: CC(C)C[C@H]1NC(=O)[C@H]([C@@H](C)O)NC(=O)[C@@H](C)NC(=O)[C@H](CCCNC(=N)N)NC(=O)[C@@H](Cc2ccccc2)NC(=O)[C@H](Cc2ccccc2)NC1=O
B2: CyPPS13 (peptide)
peptide: cyclo(T[dV]F[dF]R[dA])
SMILES: CC(C)[C@H]1NC(=O)[C@H]([C@@H](C)O)NC(=O)[C@@H](C)NC(=O)[C@H](CCCNC(=N)N)NC(=O)[C@@H](Cc2ccccc2)NC(=O)[C@H](Cc2ccccc2)NC1=O
B3: CyPPS14 (peptide)
peptide: cyclo(T[dPra]F[dF]R[dA])
SMILES: C#CC[C@H]1NC(=O)[C@H]([C@@H](C)O)NC(=O)[C@@H](C)NC(=O)[C@H](CCCNC(=N)N)NC(=O)[C@@H](Cc2ccccc2)NC(=O)[C@H](Cc2ccccc2)NC1=O
B4: CyPPS23 (peptide)
peptide: cyclo(T[dL]F[dF]R[dDap])
SMILES: CC(C)C[C@H]1NC(=O)[C@H]([C@@H](C)O)NC(=O)[C@@H](CN)NC(=O)[C@H](CCCNC(=N)N)NC(=O)[C@@H](Cc2ccccc2)NC(=O)[C@H](Cc2ccccc2)NC1=O
B5: PPS1 (peptide)
peptide: TLFFRA
modifications: also: linear version of CyPPS1, D-residues not given here
B6: CyPPS8 (peptide)
peptide: cyclo(D[dL]F[dF]R[dA])
SMILES: CC(C)C[C@H]1NC(=O)[C@H](CC(=O)O)NC(=O)[C@@H](C)NC(=O)[C@H](CCCNC(=N)N)NC(=O)[C@@H](Cc2ccccc2)NC(=O)[C@H](Cc2ccccc2)NC1=O
B7: CyPPS9 (peptide)
peptide: cyclo(V[dL]F[dF]R[dA])
SMILES: CC(C)C[C@H]1NC(=O)[C@H](C(C)C)NC(=O)[C@@H](C)NC(=O)[C@H](CCCNC(=N)N)NC(=O)[C@@H](Cc2ccccc2)NC(=O)[C@H](Cc2ccccc2)NC1=O

Columns and labels:
Assay in all cases: cell-based or functional assay
[1] = target: 20S core particle (CP) proteasome
[2] = target: cytosolic proteasome in HEK293 T cells
[3] = target: 20S core particle (CP) proteasome; remark: listed apart in the source

Binder | EC50, dose-response of 20S CP stimulation [1] | Emax, dose-response of 20S CP stimulation [1] | In-Cellulo (flow cytometry with epoxomicin probe, HEK293 T cells) [2] | TAS-1 (percent stimulation of 20S CP) [3]
B1 | 6.4 µM | 283 | 235 not printed | 340 % of DMSO
B2 | 4 µM | 394 | 174 not printed | 422 % of DMSO
B3 | 12.1 µM | 514 | 231 not printed | 388 % of DMSO
B4 | 4.1 µM | 391 | 247 not printed | 352 % of DMSO
B5 | – | – | 83.7 not printed | 126 % of DMSO
B6 | 14.2 µM | 701 | 161 not printed | 372 % of DMSO
B7 | – | – | – | 310 % of DMSO
